{"source": "IntAct's records for PubMed 22333915", "parents": {"B1": {"name": "Transcription factor NRM1 (Saccharomyces cerevisiae), P53718 (parent)", "chain": "MSIMKQRLPLGEFSSSKINKLAIANIADASEPRNHGENNVGTVCLPSIKSLMVSPEVYENTKSLPVPLMRSSGGGMACASKSSCQDGISTKTTSRDYSELSKKLQIRLQFAYYKYKTKQTDKNFTDLKSKHSITRPSKVATHSKSEPLTRRRKLVLSQGHYKTPARSKIKTPSSICSHDNTSSFTSFRGVSESSSTTADMNVADTTTPIRNNINTKHSNSHNRTLYQRQETPTSIKAAKSLIHLFTSNQ"}}}
{"variants_of": "B1", "details": "with rad53_yeast RAD53, P22216"}
{"variant": "T42A;S47A;S145A;S240A", "effect of a mutation on the interaction": "decreasing interaction"}
